According to paper PMC5670201 (2017):

Target: nab-paclitaxel nanoparticles (human, UniProt P02768 25-609)
Test: BLI

Kd: 4.51 µM
B1: biotinylated bevacizumab (antibody, V domains shown)
VH: EVQLVESGGGLVQPGGSLRLSCAASGYTFTNYGMNWVRQAPGKGLEWVGWINTYTGEPTYAADFKRRFTFSLDTSKSTAYLQMNSLRAEDTAVYYCAKYPHYYGSSHWYFDVWGQGTLVTVSS
VL: DIQMTQSPSSLSASVGDRVTITCSASQDISNYLNWYQQKPGKAPKVLIYFTSSLHSGVPSRFSGSGSGTDFTLTISSLQPEDFATYYCQQYSTVPWTFGQGTKVEIK
modifications: biotin (sites not given) | biotin (sites not given)
